Data taken from article PMC10347550 (2023).

Each binder was assayed against integrin αIIbβ3 (Homo sapiens, UniProt P08514) (assay: tryptophan fluorescence quenching (Stern-Volmer)).

Binder	Kd [nM]
Ac-MRGDH-NH2 (also: Met and His coordinated to Λ-Ru(Ph2phen)2, Cl2 salt) [Λ-[Ru(Ph2phen)2(Ac-MRGDH-NH2)]Cl2 (Λ-[1]Cl2)]	61
Ac-MRGDH-NH2 (also: Met and His coordinated to Δ-Ru(Ph2phen)2, Cl2 salt) [Δ-[Ru(Ph2phen)2(Ac-MRGDH-NH2)]Cl2 (Δ-[1]Cl2)]	83
Ac-MRADH-NH2 (also: Met and His coordinated to Δ-Ru(Ph2phen)2, dichloride salt) [Δ-[Ru(Ph2phen)2(Ac-MRADH-NH2)]Cl2 (Δ-[3]Cl2)]	112
